Test results as given in the supplement of paper PMC12042874.
± gives the uncertainty stated by the source.

Test: amyloid nucleation score (Sup35N fusion, yeast selection) (log enrichment); library NNK2; higher = more nucleation; inactive = no reads after selection
How it was run: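 Using DiMSum, nucleation scores were taken as the log enrichment of output over input reads, centred on the mode score of non-aggregating sequences. The input and output reads came from Illumina sequencing of plasmid inserts, with sequences under 100 input reads excluded. The yeast were psi-negative, expressed Sup35N fused to peptides of 20 random codons, were induced with 100 μM copper sulfate for 24 hours, and were grown 7 days at 30°C on medium lacking adenine and uracil.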
In the case of PCSWPNPHLRIGFRLKSPPP, the amyloid nucleation score is reported as 4.34 ± 0.076. With PCTVHASNRTLGHRVKSCSV the amyloid nucleation score was -0.515 ± 1.1. With PCWLNGWERFHIWRFNGSVR the amyloid nucleation score was -0.281 ± 0.37. PDGSASIGGYYGQFLL showed an amyloid nucleation score of -0.746 ± 0.62. Work on PDIYLYFLKKVMRS yielded an amyloid nucleation score of -1.57 ± 1.1. PDPLWGRPFYIWIMELGSRK gave an amyloid nucleation score of 2.32 ± 0.13. For PDWLCEVKRIYELIGYMALI, the amyloid nucleation score was 0.41 ± 0.41. With PESGGNAIFAHERMQLGRRS the amyloid nucleation score was 0.92 ± 0.57. For PFCPFSEAVWMSTITLQHEG, the amyloid nucleation score was -0.054 ± 0.32. PFSYFRWWPYRILAWSTWLV gave an amyloid nucleation score of 4.89 ± 0.061. In the case of PFVTK, the amyloid nucleation score is reported as 0.259 ± 0.29. For PFVVNVAGLKMSVRV, the amyloid nucleation score was 3.71 ± 0.07. PGSTRAFIMAVWGAPTEWER gave an amyloid nucleation score of 2.86 ± 0.16. Substance PHKSAGGRLSMFGAKHGDMV has an amyloid nucleation score of 0.822 ± 0.49. With PIFLFQRYPLLGLWLKKACD the amyloid nucleation score was “inactive”. Substance PIIFSLSTFSCNVYEIRSNG has an amyloid nucleation score of 3.57 ± 0.093. PIIIDDLMYLGDVDLTMFGE showed an amyloid nucleation score of -0.234 ± 0.74. With PILYGSNGVRFV the amyloid nucleation score was -1.05 ± 1.1. Work on PKSLCYSTLTRGWCQM yielded an amyloid nucleation score of -0.418 ± 1. With PLIYLSSFYIDCHLWSSFGV the amyloid nucleation score was 6.806 ± 0.035. PLNSMNVAESESYGLSQMS showed an amyloid nucleation score of 1.28 ± 0.37. In the case of PLTNSNRPGMKHLSSKQSSV, the amyloid nucleation score is reported as 0.138 ± 0.41. Work on PLVTWHFS yielded an amyloid nucleation score of 0.413 ± 0.31. Substance PLWCSAGALLYWYKYPWFWL has an amyloid nucleation score of -0.332 ± 0.63. In the case of PLYPLCSHPYVGFVTHTISR, the amyloid nucleation score is reported as -0.053 ± 1. PMMYQRLCIMFFCSTITLMI showed an amyloid nucleation score of 1.92 ± 0.14. In the case of PMSDMFYFFGFECSRLIMSN, the amyloid nucleation score is reported as “inactive”. Substance PNLIGLLVGLRVNSWSVAIT has an amyloid nucleation score of 0.632 ± 0.21. PNPRPVSICNRLYPF gave an amyloid nucleation score of -0.246 ± 0.38. For PNQISNA, the amyloid nucleation score was -0.47 ± 1.1. PPDNVSNWYVVKWAGRMMQK gave an amyloid nucleation score of 4.13 ± 0.044. For PPRGFFVAWIVDFRGAGLMG, the amyloid nucleation score was -0.743 ± 0.48. PPVLLISKSSFMQLGCSLST showed an amyloid nucleation score of -0.587 ± 1. Substance PQWWRNLLSKSGTNAADCYL has an amyloid nucleation score of 0.577 ± 0.57. Work on PRILLQSLRI yielded an amyloid nucleation score of 2.47 ± 0.064. PRRVDRW gave an amyloid nucleation score of 0.339 ± 0.2. Work on PRSSAVYIRTLRVSQKVDPM yielded an amyloid nucleation score of 2.64 ± 0.11. Work on PRVVGGFANISMWLATGTPF yielded an amyloid nucleation score of 2.94 ± 0.093. In the case of PRVVYNFLNWGIGFYFVVDD, the amyloid nucleation score is reported as 7.161 ± 0.027. PSCRWKLHEMSTSSVQFWMK showed an amyloid nucleation score of 5.59 ± 0.064. PSFILIFNGCKWVPYASKCG gave an amyloid nucleation score of 8.916 ± 0.021. Substance PSGPSHIYGWYDSFHNCSYN has an amyloid nucleation score of -0.369 ± 0.49. PSHFVGFCAHSYDVGVFMWV showed an amyloid nucleation score of 0.077 ± 0.42. For PSLAKRGVSVCLAKANSRTI, the amyloid nucleation score was -0.388 ± 1. PSLMHSHLESNNTSA showed an amyloid nucleation score of -0.21 ± 0.44. In the case of PSSFNSRFFCLVTNGWQYMS, the amyloid nucleation score is reported as “inactive”. PSSGPPNESAMSPITYSGEG showed an amyloid nucleation score of -0.684 ± 1.1. In the case of PSTIGQYITR, the amyloid nucleation score is reported as -0.119 ± 0.49. With PSTYWRMILKFRVCEIVHGT the amyloid nucleation score was 0.231 ± 0.21. PSWHI showed an amyloid nucleation score of -0.193 ± 0.47. PSYMFITVLYLQTEFGFDDT gave an amyloid nucleation score of 3.82 ± 0.074. PSYPSVSRVK gave an amyloid nucleation score of 0.151 ± 0.24. Substance PTCGNSPMVRWCSAETFVWG has an amyloid nucleation score of 3.04 ± 0.13. In the case of PTGNQLKKCVDKCGGRSGGE, the amyloid nucleation score is reported as “inactive”. PVKPDSVGVRSIMGIVFGYR showed an amyloid nucleation score of 2.94 ± 0.051. PVRCMIAHNCLIFWLVWTVV showed an amyloid nucleation score of -0.154 ± 0.25. PVRGE showed an amyloid nucleation score of 0.089 ± 0.8. With PVRRRGNLFIRRLLSFEKKL the amyloid nucleation score was “inactive”. For PWALTFNHCKIDDTKRGHIV, the amyloid nucleation score was 0.64 ± 0.8. For PWHDEVVVSNQVYTYMGPSS, the amyloid nucleation score was 0.074 ± 0.3. Work on PWLDIFNVACTSRGSLVWYE yielded an amyloid nucleation score of -0.855 ± 1.1. For PWWLWVGSMYENYGFAPFWV, the amyloid nucleation score was -0.969 ± 0.3. With PYILRFRRDLRGFRI the amyloid nucleation score was 0.449 ± 0.56. Substance PYISWGSTGFVNAGRY has an amyloid nucleation score of 3.74 ± 0.072. In the case of PYLGRFFSCLYTEWDTP, the amyloid nucleation score is reported as “inactive”. In the case of PYTFQYY, the amyloid nucleation score is reported as -0.549 ± 0.26. For QACRSTGNSFVLNRYMKERT, the amyloid nucleation score was 0.215 ± 0.24. Substance QAPLWENSVSVPRLWWNSLS has an amyloid nucleation score of -0.342 ± 1.1. For QASSGSKDLD, the amyloid nucleation score was 0.102 ± 0.23. QEMYALACHVLTCCNLRNKR showed an amyloid nucleation score of 9.866 ± 0.034. In the case of QEVELGMGPKRGETVKEVDL, the amyloid nucleation score is reported as 0.098 ± 0.22. In the case of QFAYTRSSPVKIYLYNNYGA, the amyloid nucleation score is reported as 8.109 ± 0.037. In the case of QFDWDRVYMFSTLPFCIWWV, the amyloid nucleation score is reported as -0.783 ± 0.35. Substance QFEVNNLTPIGEEGGPKDCP has an amyloid nucleation score of 0.759 ± 0.43. Work on QFHFK yielded an amyloid nucleation score of 0.036 ± 0.35. QFSLLTKYTNVHILGSEEFG gave an amyloid nucleation score of 0.388 ± 0.36. For QFSSLVFAEEKMNPRMCMVR, the amyloid nucleation score was -0.294 ± 0.2. QGSNRACGLSEDCLFTV showed an amyloid nucleation score of 0.282 ± 0.22. QHRMDTDTNYFDKDVGHFIS showed an amyloid nucleation score of -0.984 ± 0.32. Work on QIDYRLIVGRSG yielded an amyloid nucleation score of 0.32 ± 0.74. Substance QIRAPHGGYVYYAGVATYSN has an amyloid nucleation score of -0.206 ± 1.1. Substance QIVWLHCLFRRFSNGATSDD has an amyloid nucleation score of -0.122 ± 0.23. With QKHPGFKYHQNLRLVSLSKR the amyloid nucleation score was -0.837 ± 0.45. With QKRRDFVVHCIRELWFYEHD the amyloid nucleation score was “inactive”. QKTRLSPVYHVGNSGLSPSV gave an amyloid nucleation score of 0.29 ± 0.77.
